Laboratory results reported in PMC9811221 (2022).

Molecular target: PD-L1-Fc fusion protein (Invitrogen) (human, UniProt Q9NZQ7 19-238)
Experiment: BLI

Chain of PD-L1-Fc fusion protein (Invitrogen) (Q9NZQ7 19-238): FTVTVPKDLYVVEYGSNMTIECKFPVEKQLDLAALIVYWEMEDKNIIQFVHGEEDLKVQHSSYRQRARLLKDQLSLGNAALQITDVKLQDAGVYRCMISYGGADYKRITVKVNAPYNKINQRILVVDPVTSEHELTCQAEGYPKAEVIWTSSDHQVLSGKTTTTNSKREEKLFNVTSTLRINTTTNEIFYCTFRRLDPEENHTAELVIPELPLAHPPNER

| Kd [nM] | Binder |
| --- | --- |
| 2200 | VHH2 (VHH) VHH: QVQLVESGGGSVQPGGSLRLSCAASGSIVGHAVQAWYRQAPGKQRDLVAQLFDNGKTNIADSVKGRFTISGDNAKNTFYLQMNNLKPEDTAIYYCAILILPSMGVPPNIYEGQGTQVTVSS |
| 1600 | VHH19 (VHH) VHH: EVQLVESGGGSVQAGASLRLSCAASGFPFSHYAIGWFRQAPGKEREFVTSIDRSGINTYYADSVKGRFTISRDNAKNAVSLQMNSLKPDDTAVYYCAAGPRLVTSPELYPYWGQGTQVTVSS |
| 5100 | VHH21 (VHH) VHH: EVQLVESGGGLVQTGGSLRLSCAASGRTFDSYFMGWFRQAPGKEREFVAAISGSGSLTSYEDGVKGRFTISRDNAKNTVSLQMTNLKPEDTAVYYCASCLSCAFINGRQVDSRYYNYWGQGTQVTVSS |
| 340 | VHH20 (VHH) VHH: EVQLVESGGGSVQAGGSLRLSCVASGIAFSESPMAWYRQAPGRQREFVADVSADNKPYYRDTLKGRFTISRDNDKNSVYLQMNFLQPEDTAVYYCNALLLEAGTIKNYWGQGTQVTVSS |
| 180 | VHH16 (VHH) VHH: QVQLVESGGGWVQTGGSLRLSCAASGSTFDIKRMAWYRQAPGKEREFVADIWSEGSTHYADSVKGRFTISRDSAKNTMYLQMNSLKPEDTAAYYCNVGNTWGQGTQVTVSS |
| 720 | VHH18 (VHH) VHH: EVQLVESGGGWVQTGGSLRLSCAASGSTFDIKRMAWYRQAPGKEREFVADIWSEGSTHYADSVKGRFTISRDSAKNTMYLYMNSLKPEDTAVYYCNVEYVLRTYWGQGTQVTVSS |
| 290 | VHH14 (VHH) VHH: EVQLVESGGGLVQAGDSLRLSCTASARTFIKYAMGWFRQAPGKEREFVAAISWSGSRTTYADSVKGRFTISRDNDKNTVYLQMNTLEPEDTAIYYCAKAKGGYHSSQYDYDYWGQGTQVTVSS |
| 190 | VHH10 (VHH) VHH: EVQLVESGGGLVQAGDSLRLSCAASGRAFSGYAMAWFRQAPEKEREFVAAITWRGGTPYYAVRAKGRFTISRDSAKNTAYLEVNSLKPEDTATYYCAAPSLQVATMDVKDYAYWGQGTLVTVSS |
| 1300 | VHH13 (VHH) VHH: EVQLVESGGGLVQPGGSLRLSCAASGSTFSINAMGWYRQAPGKQRELVAAISSGGSTNYADSVKGRFTISRDNAKNTVYLQMNSLKPEDTAVYYCNTINIGTFISLGGSPLGSWGQGTQVTVSS |
| 2700 | VHH22 (VHH) VHH: EVQLVESGGGLVQAGGSLKLSCAASGRTFSGNTMGWFRQAPGKERELVTVVSSGGSTYYSDSVKGRFTISRDNALNTVYLQMNSLKPEDTAVYYCAAASLISGLTTTRRLFDYWGQGTQVTVSS |
| 330 | VHH17 (VHH) VHH: EVQLVESGGGLVQAGGSLRLSCAASGRTFSAYAMGWFRQAPGKERELVAGISWSGGMTYYADSVKGRFTISRDNAKNMVYLQMNSLKAEDTAVYYCAGGFSAVVPDHPDEYHYWGQGTQVTVSS |
